Laboratory results published in paper PMC9092267.

Biological target: CK2α with para-azidophenylalanine at Tyr239 coupled with DBCO-Sulfo-Cy5 (Homo sapiens) (UniProt P68400)
Assay: MST; 0.1526 to 5,000 nM GST cleaved CK2β titrated to 30 nM Cy5-labelled CK2α; 50 mM Tris-HCl (pH 8), 500 mM NaCl, 500 μM CaCl2, 0.05% Tween 20, 0.5% (v/v) DMSO; 25 °C; Monolith NT.115

| Substance | Kd [nM] |
| --- | --- |
| casein kinase II subunit beta (CK2β), wild type, GST cleaved (from UniProt P67870 1-215) (natural protein) | 12.9 |
| casein kinase II subunit beta (CK2β) NP_001311.3; p.Asp32His, GST cleaved (from UniProt P67870 1-215) (natural protein) | 15.8 |
